# Results published in patent publication US20240271091A1 (University of Pennsylvania, published 2024).
# No end group written: not given here.
# B1: photoreactive Protein G (pAbBD), BPA position not stated (designed binder)
# chain: MTFKLIINGKTLKGEITIEAVDAAEAEKIFKQYANDYGIDGEWTYDDATKTFTVTE
# modifications: also: contains benzoylphenylalanine (BPA), position not given here
# Molecular target: BSA (UniProt P02769 25-607)
# Assay: UV photocrosslinking of hIgG2 in the presence of BSA
binder,measurement,value
B1,binding result,no binding (tested: 1% BSA solution (200-times molar excess))
